Source: patent publication US20250270301A1

Assays:
[1] = molecular target: monomeric P301S 2N4R tau, pHrodo-labelled (human) (UniProt P10636); test: cell-based or functional assay
[2] = molecular target: aggregated (oligomeric) P301S 2N4R tau, pHrodo-labelled (human) (UniProt P10636); test: cell-based or functional assay
aggregated (oligomeric) P301S 2N4R tau, pHrodo-labelled (human), sequence (P10636 other isoform, or with tags, fused parts or gaps P301S P301S): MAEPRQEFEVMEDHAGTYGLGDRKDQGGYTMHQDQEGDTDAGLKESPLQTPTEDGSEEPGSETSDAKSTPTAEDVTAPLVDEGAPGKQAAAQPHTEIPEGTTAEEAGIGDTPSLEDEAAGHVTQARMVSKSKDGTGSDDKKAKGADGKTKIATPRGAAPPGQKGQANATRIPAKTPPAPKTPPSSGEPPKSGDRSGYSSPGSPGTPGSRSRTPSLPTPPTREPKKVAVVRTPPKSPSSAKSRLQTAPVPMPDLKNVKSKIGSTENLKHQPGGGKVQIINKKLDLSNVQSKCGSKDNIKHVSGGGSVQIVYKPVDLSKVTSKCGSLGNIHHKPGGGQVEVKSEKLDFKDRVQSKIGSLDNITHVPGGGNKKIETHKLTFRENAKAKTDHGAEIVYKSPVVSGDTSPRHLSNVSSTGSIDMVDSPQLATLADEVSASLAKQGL

monomeric P301S 2N4R tau, pHrodo-labelled (human), sequence (P10636 other isoform, or with tags, fused parts or gaps P301S P301S): as above

With “isotype control human IgG1 (anti-fluorescein, Absolute Antibody)” the inhibition of monomeric tau uptake into human iPSC-derived neurons [1] was 6.2% and the inhibition of aggregated tau uptake into human iPSC-derived neurons [2] was 14.3%.
